Test system: CD4+ T cells and NKT cells
Experiment: peripheral blood CD4+ T cells cultured with human dendritic cells loaded with natural or mutated antibody
Assay type: cell-based
Conditions: 5 to 7 days culture
Excerpt: Monoclonal human antibodies of the IgG4 isotype were derived from the peripheral blood B lymphocytes by transformation with the Epstein-Barr virus. The genomic sequence of such antibodies was obtained from transformed B cells. A viral vector containing the corresponding cDNA sequence was constructed and used for transfection of CHO cells. All these methods are known in the art (see for instance, Jacquemin et al Blood 92: 496-506, 1998).
The hydrophobic aminoacid residues located in position 1 in the peptides of SEQ ID18 and SEQ ID20 were mutated to a serine and the mutated antibody produced by transfected CHO cells.
Peripheral blood CD4+ T cells obtained as above were exposed in culture medium to human dendritic cells (derived from human peripheral blood monocytes by methods known in the art) and loaded with either the antibody in natural configuration (SEQ ID21) or its mutated counterpart (SEQ ID22). After culturing the cells with CD4+ T cells for 5 to 7 days, the population of CD4+ T cells activated by either natural or mutated antibody was evaluated. CD4+ NKT cells were separated from CD4+ T cells using an antibody to NKG2D, a surface marker associated with NK or NKT cells only.

B1: SEQ ID22: mutated counterpart of the IgG4 antibody, position 1 residues of SEQ ID18 and SEQ ID20 motifs mutated to serine (protein, listed as Homo sapiens)
chain: ASTKGPSVFPLAPCSRSTSESTAALGCLVKDYFPEPVTVSWNSGALTSGVHTFPAVLQSSGLYSLSSVVTVPSSSLGTKTYTCNVDHKPSNTKVDKRVESKYGPPCPSCPAPEFLGGPSVFLFPPKPKDTLMISRTPEVTCVVVDVSQEDPEVQFNWYVDGVEVHNAKTKPREEQFNSTSRVVSVLTVLHQDWLNGKEYKCKVSNKGLPSSIEKTISKAKGQPREPQVYTLPPSQEEMTKNQVSLTCLVKGFYPSDIAVEWESNGQPENNYKTTPPVLDSDGSFFLYSRLTVDKSRWQEGNVFSCSVMSEALHNHYTQKSLSLSLGK
**Q.** B1 was tested. Which “activation of class II restricted CD4+ T cells” value did it give?
**A.** only activate class II restricted CD4+ T cells

**Q.** What about the “activation of NKT cells” value (NKT cells separated with antibody to NKG2D) of the same molecule?
**A.** not NKT cells

Reference: US11091512B2, “Modulation of antigen immunogenicity by deleting epitopes recognized by NKT cells” (Imnate Sarl, priority 2010, dated 2021)
